Test [1] addresses T1, human MET ECD (human, UniProt P08581 25-932).
T1 construct: range 1-932; recombinant; range as printed includes the signal peptide; also called hMET; hMET ECD
Put plainly: ELISA, MET ECD coated, mAb 0-40 nM, mouse IgG format.

Test [2] addresses T2, mouse MET ECD (mouse, UniProt P16056 25-931).
T2 construct: range 1-931; recombinant; range as printed includes the signal peptide; also called mMET; mMET ECD
The description is as above.

Test [3] addresses T3, native human MET on living cells (human, UniProt P08581 25-1390). Description: cell-based or functional assay.
Test [4] addresses T4, native mouse MET on living cells (mouse, UniProt P16056 25-1379). Description: cell-based or functional assay.
For test [5], the target named is T2, mouse MET ECD. Description: ELISA, mMET ECD coated.
In test [6] the target is T4, native mouse MET on living cells. Put plainly: FACS, MLP29 cells.
In test [7] the target is T1, human MET ECD. Description: ELISA, MET ECD coated, mAb 0-20 nM. As to the method: (§1) Production (by transient transfection of mammalian cells) and purification (by protein A affinity chromatography) of the resulting chimeric llama-human IgG1 molecules was outsourced to U-protein Express. Binding of chimeric mAbs to MET was determined by ELISA using hMET or mMET ECD in solid phase and increasing concentrations of antibodies (0-20 nM) in solution. […] Binding capacity (EMAX) varied from antibody to antibody, possibly due to partial epitope exposure in the immobilized antigen, but was similar in the human and mouse setting.

For test [8], the target named is T2, mouse MET ECD. Put plainly: ELISA, MET ECD coated, mAb 0-20 nM. As to the method:
as §1

The target in test [9] is T3, native human MET on living cells. Description: cell-based or functional assay. This is another data set of the same source.
Test [10] concerns the target T4, native mouse MET on living cells. Description: cell-based or functional assay. This is another data set of the same source.
Test [11] deals with T1, human MET ECD. Put plainly: ELISA, WT or mutant hMET ECD coated. As to the method:
Using human MET as a template, we mutagenized each of these residues in different permutations, generating a series of MET mutants that are fully human except for specific residues, which are llama. Next, we tested the affinity of selected SEMA-binding mAbs (71D6, 71C3, 71D4, 71A3, 71G2) and PSI-binding mAbs (76H10 and 71G3) for these MET mutants by ELISA. To this end, the various MET proteins were immobilized in solid phase (100 ng/well in a 96-well plate) and then exposed to increasing concentrations of antibodies (0-50 nM) solution. […] Wild-type human MET was used as positive control.
TABLE 24 The epitopes of MET responsible for agonistic antibody binding represent residues conserved among H. sapiens, M. musculus, R. norvegicus, M. fascicularis but not among the same species and L. glama. The relevance of residues conserved among human, mouse, rat, cynomolgus monkey but not llama MET for binding to agonistic mAbs was tested by ELISA. Wild-type (WT) or mutant (MT) human MET ECD was immobilized in solid phase and exposed to increasing concentrations of mAbs in solution. […] All binding values were normalized to the WT protein and are expressed as % binding (EMAX) compared to WT MET.
For orientation: ELISA stands for enzyme-linked immunosorbent assay.

The target of test [12] is T3, native human MET on living cells. Description: cell-based or functional assay. This is another data set of the same source.
Test [13] has as its target T4, native mouse MET on living cells. Put plainly: cell-based or functional assay. This is another data set of the same source.
In test [14] the target is T3, native human MET on living cells. Description: FACS, A549 cells. (Flow cytometry measures light scatter and fluorescence of single cells or particles in a stream.)
In test [15] the target is human MET ECD mutant D (mutations 1, 2) (human) (UniProt P08581). Put plainly: ELISA, WT or mutant hMET ECD coated.
Test [16] addresses human MET ECD mutant A (mutations 1, 2, 3) (human) (UniProt P08581). Put plainly: ELISA, WT or mutant hMET ECD coated.
Test [17] has as its target human MET ECD mutant E (mutations 2, 3, 4) (human) (UniProt P08581). Put plainly: ELISA, WT or mutant hMET ECD coated.
The target in test [18] is human MET ECD mutant H (mutations 2, 4) (human) (UniProt P08581). Put plainly: ELISA, WT or mutant hMET ECD coated.
The target of test [19] is T1, human MET ECD. Put plainly: ELISA, hMET ECD coated.

What is called EC50 is the concentration needed to bring the measured effect to its halfway point. Lower therefore signals higher potency in that assay.

As to 5D5 mouse anti-human MET antibody, in the test with human MET ECD [1], the EC50 was found to be 0.197 nM and the EMAX worked out at 3.16 OD450. For the same molecule, the EC50 in the test with mouse MET ECD [2] was greater than 40 nM.

B1: 71D6 chimeric llama-human IgG1 mAb (antibody, V domains shown)
VH: ELQLVESGGGLVQPGGSLRLSCAASGFTFSSYGMSWVRQAPGKGLEWVSAINSYGGSTSYADSVKGRFTISRDNAKNTLYLQMNSLKPEDTAVYYCAKEVRADLSRYNDYESYDYWGQGTQVTVSS
VL: QPVLNQPSALSVTLGQTAKITCQGGSLGARYAHWYQQKPGQAPVLVIYDDDSRPSGIPERFSGSSSGGTATLTISGAQAEDEGDYYCQSADSSGSVFGGGTHLTVL
notes: human IgG1 CH1-CH2-CH3 and human CL lambda; also called 71D6 Human IgG1/lambda
With B1, the “phospho-MET ELISA EMAX, A549 cells” value in test [3] stood at 102 % HGF activity. In addition, the “phospho-MET ELISA EMAX, MLP29 cells” value in test [4] was determined as 115 % HGF activity. Also, the EC50 turned out to be 0.036 nM with mouse MET ECD [5] and 0.032 nM with human MET ECD [19]. Also, the EMAX in test [6] worked out at 120 % CTR; with human MET ECD [7] it was 2.08 OD450 AU; in the test with mouse MET ECD [8], 2.01 OD450 AU; in test [14], 115 % CTR. Besides, the “protection from staurosporine-induced apoptosis EC50, MCF10A cells” value in test [9] came to 1.48 nM. The “protection from staurosporine-induced apoptosis EMAX, MCF10A cells” value in test [9] is 66.8%. Also, the “protection from staurosporine-induced apoptosis EC50, MLP29 cells” value in test [10] was found to be 0.95 nM. Moreover, the “protection from staurosporine-induced apoptosis EMAX, MLP29 cells” value in test [10] came to 68.3%. In addition, the “% binding (EMAX) vs WT MET ECD” value worked out at 100% with human MET ECD [11]; 128% in test [15]; 103% in test [16]; 43.6% in test [17]; 38.6% in [18]. Also, in [12], the “A549 MET act. (EMAX, % HGF)” value was found to be 104 % HGF. Further, the “LOC br. m. (branch n.)” value in test [12] came out at 32.7 branches per spheroid. For the same molecule, the “MLP29 MET act. (EMAX, % HGF)” value in test [13] turned out to be 110 % HGF. Besides, the “MLP29 br. m. (branch n.)” value in test [13] worked out at 41.3 branches per spheroid.

B2: 71D6 llama-mouse chimeric mAb (mouse IgG1/lambda) (antibody, V domains shown)
VH: B1 VH
VL: QPVLNQPSALSVTLGQTAKITCQGGSLGARYAHWYQQKPGQAPVLVIYDDDSRPSGIPERFSGSSSGGTATLTISGAQAEDEGDYYCQSADSSGSVFGGGTHLTVLG
notes: also called 71D6 Mouse IgG1/lambda
In the test with mouse MET ECD [5], B2 came in with a concentration giving a half-maximal response (EC50) of 0.036 nM. For the same molecule, the “LOC br. m. (branch n.)” value in test [12] was 30.4 branches per spheroid. In test [13], the “MLP29 br. m. (branch n.)” value turned out to be 39.5 branches per spheroid.

(Values after patent US20200407452A1 (published 2020).)
